Assay results reported in PMC10514558, “Suramin inhibits SARS-CoV-2 nucleocapsid phosphoprotein genome packaging function”.

Key:
SARS-CoV-2 N NTD = SARS-CoV-2 N NTD (SARS-CoV-2, UniProt P0DTC9 44-180); test: MST; 20 nM RNA; no suramin; apparent Kd; details: protein: recombinant; tags: 6xHis; label: 5'-Cy5
SARS-CoV-2 N CTD = SARS-CoV-2 N CTD (SARS-CoV-2, UniProt P0DTC9 247-364); test: MST; details: protein: recombinant; tags: 6xHis; chain copies: 2; label: 5'-Cy5

**Q.** What does the source list for AUUAAAG (ssRNA) [Cy5-ssRNA 7-mer]?
**A.** Kd (SARS-CoV-2 N NTD): 30.6 ± 4.9 µM; Kd (SARS-CoV-2 N CTD): 5.3 ± 0.2 µM
